Measurements as given in the supplement of paper PMC10567573.
± gives the standard deviation.

Test: protein stability index of a GFP-peptide fusion (GPS, HEK-293T) (PSI 1-6); higher = more stable
[1] = treatment: DMSO, c terminus: a fixed tail appended
[2] = treatment: MLN4924 1 uM, 8 h, c terminus: a fixed tail appended
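Note: 24-mer peptide tiles fused after GFP, lentivirally expressed, FACS-sorted into six equal bins by GFP/DsRed ratio, decoded by Illumina sequencing, PSI is the read-weighted mean bin number.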

Sequence	protein stability index [1]	protein stability index [2]	protein stability index (treatment: DMSO, c terminus: native)	protein stability index (treatment: MLN4924 1 uM, 8 h, c terminus: native)
KNLFRLEMDMVVFRPEMKKHSWCL [N4BP2L1]	2.48 ± 0.48	2.4 ± 0.45	–	–
GAGRRRRAGGPPRPMSEPGAGAGS [SMAD6]	5.22 ± 0.41	5.21 ± 0.14	–	–
LLGFLRIRVRGQRASRLQAPVLVA [LPCAT4]	2.37 ± 0.52	2.12 ± 0.29	–	–
ASNWSTTGFGQGQGYTINVPWNQV [HDAC6]	2.14 ± 0.47	2.22 ± 0.43	–	–
SPGLSYASHTVGFTPPTSLTRAGM [CCDC6]	3.01 ± 0.12	3.37 ± 0.31	–	–
PGSQALPAPALAPDQLPQNNTLVA [FBXO28]	4.74 ± 0.35	4.88 ± 0.37	–	–
DCAGSPQKPLCASDGRTFLSRCEF [SMOC2]	3.05 ± 0.48	3.27 ± 0.36	–	–
GWSTPPKCRSTISAEKCGPPPPID [CFHR2]	3.72 ± 0.38	3.93 ± 0.25	–	–
QQNEDLRRMAESLRIPEGPIDQGP [FUT8]	4.96 ± 0.23	4.94 ± 0.17	–	–
GAGAGAPGGGRLLLSTSLDAKDEL [INTS3]	5.04 ± 0.27	5.08 ± 0.068	–	–
KGNTALHDCAESGSLDIMKMLLMY [FEM1C]	1.97 ± 0.22	1.96 ± 0.34	–	–
FWKKYRTFWKEDKAFWKEDNALWE [CCDC70]	2.54 ± 0.49	2.26 ± 0.36	–	–
TEQAAEYVPEKVKKAEKKLEENPY [CSTF3]	5.52 ± 0.3	5.37 ± 0.14	–	–
MSERLRPRKRRRNGNEEDNHLPPQ [FAM104A]	5.3 ± 0.14	5.39 ± 0.14	–	–
FNNVVEQNFKNRESYPEDTVFYIP [DLC1]	3.01 ± 0.24	3.16 ± 0.2	–	–
SGTQYVSTRQTQSWTAVTPQQTWA [C18orf25]	2.7 ± 0.29	3 ± 0.51	–	–
LPLPPPPPEPLSQVSMWDQRWQDH [APBB1IP]	3.19 ± 0.78	3.54 ± 0.57	–	–
DSLLVVLDMDEGTLSFIVDGQYLG [SPSB4]	2.52 ± 0.53	2.6 ± 0.69	–	–
YVKFDAVSGDYYPIIYFNDYWNLQ [CLPTM1]	2.78 ± 0.5	2.8 ± 0.64	–	–
ENILADNSVNDQTKILVVNAAYFV [SERPINB5]	2.25 ± 0.21	2.34 ± 0.17	–	–
AEFQLVRDVVLCSLLNFLPEGVNK [TENT5C]	2.37 ± 0.7	3.07 ± 0.85	–	–
GYSSLDQSPDEKPLVALDTDSDDD [FAM219A]	5.69 ± 0.17	5.48 ± 0.31	–	–

Sequence	protein stability index [1]	protein stability index [2]	protein stability index (treatment: DMSO, c terminus: native)	protein stability index (treatment: MLN4924 1 uM, 8 h, c terminus: native)
LEAELLQIEERHQEKKRKFLESTD [SMARCE1]	4.89 ± 0.69	5.04 ± 0.24	–	–
LSRDTVQESYENVDSLESHIPSQE [ZNF263]	5.26 ± 0.13	5.41 ± 0.13	–	–
DYPYSPPTFRFLTKMWHPNIYENG [UBE2R2]	2.21 ± 0.41	2.3 ± 0.13	–	–
AAANGGHVKIVKLLLAHKADVNAQ [ANKRD17]	2.51 ± 0.31	2.68 ± 0.18	–	–
VLLGWTLHYFPFFLMGRVLYFHHY [POMT2]	2.96 ± 0.29	2.91 ± 0.42	–	–
ISQMDSDQFIPIWTVANMEEIKKL [LARP4]	3.25 ± 0.19	3.32 ± 0.16	–	–
TPVILVGCQLDLRYADLEAVNRAR [RHOBTB1]	2.46 ± 0.09	2.34 ± 0.39	–	–
SFSTAIGRTCITDLQLTVGGAQAS [MFSD9]	2.5 ± 0.33	2.34 ± 0.3	–	–
GPRFLAYFGSFATVGLLWFAHHSL [TMEM175]	3.17 ± 0.2	3 ± 0.27	–	–
QYLMATFVHVYITSFIRGPNPSKV [CDS1]	3.12 ± 0.17	3.2 ± 0.34	–	–
NKHLTTHQGIKPYKCSWCGKSFSQ [ZNF75A]	2.35 ± 0.45	2.06 ± 0.37	–	–
CSVRPDASVSSHRFFGPNAEISQP [TCF25]	3.57 ± 0.32	3.73 ± 0.092	–	–
VIDILPNCVSSVYLYYDPDYSFLS [ATE1]	3.35 ± 0.49	3.1 ± 0.77	–	–
AACIAYIRLTQYIDGQGRPRTSQS [CAMK2B]	2.24 ± 0.54	2.48 ± 0.23	–	–
RNIHRHVILSEIKEAVAALPPDVT [TCF25]	3.35 ± 0.084	3.62 ± 0.28	–	–
YGHDYPRAAYQQVIQPALPGQPLP [TRAF3IP2]	2.55 ± 0.71	3.25 ± 0.69	–	–
GIKTVIVNMVDVAKALNRPPTYPT [EIF5]	2.32 ± 0.48	2.4 ± 0.59	–	–
SSEEGWRLFKIDKEYLLKMATEE [SAT1]	–	–	2.78 ± 0.62	2.88 ± 0.68
IARVADGLPLAASMQEDEQSGRDL [SEC22B]	5.24 ± 0.22	5.33 ± 0.15	–	–
SELPFVPNYLANPAFPFIYTPTAE [ANKRD40]	2.8 ± 0.19	2.95 ± 0.2	–	–
NKRCKDKKKSILMKQLQQQQHSDK [ISL2]	4.45 ± 0.18	4.5 ± 0.12	–	–
GEKPYECQDCGRAFNQNSSLGRHK [ZNF8]	3.19 ± 0.47	3.69 ± 0.23	–	–

Sequence	protein stability index [1]	protein stability index [2]	protein stability index (treatment: DMSO, c terminus: native)	protein stability index (treatment: MLN4924 1 uM, 8 h, c terminus: native)
RGMDLSWESRTGDQYSYSSLVMGS [LCOR]	2.65 ± 0.41	2.92 ± 0.28	–	–
NQLQYMQNVVVKTLWKHQFAWPFY [BRD3]	3.03 ± 0.46	2.64 ± 0.36	–	–
KEDGEPSWREAKVSWFGSPTTSFL [PWWP2B]	2.95 ± 0.082	3.17 ± 0.55	–	–
MENLLQATKSHVDKVIMKLGKTNA [DYNC2LI1]	3.24 ± 0.28	3.34 ± 0.38	–	–
LSAALASSQKQHSFTSSDKTIKSF [C8orf76]	3.77 ± 0.35	3.74 ± 0.2	–	–
QVEVDAQQCMLEILDTAGTEQFTA [RAP1B]	4.54 ± 0.12	4.59 ± 0.16	–	–
VDDLSVEWDAMGGKVQDIKAREKD [FSD1]	5.41 ± 0.33	5.5 ± 0.43	–	–
MANQEAAIQAFLDKCSAPKIWRTP [IQUB]	3.11 ± 0.14	3.16 ± 0.34	–	–
QAHGSEGLTFQGLLPLTELSVCPL [PLEKHN1]	3.08 ± 0.29	3.05 ± 0.19	–	–
VNLQHLDLLNNKLVTLPVSFAQLK [LRRC59]	2.12 ± 0.23	2.31 ± 0.3	–	–
QILELLVLEQFLTILPQEIQSRVQ [ZNF263]	3.06 ± 0.47	3.43 ± 0.49	–	–
HLHLETFKAVLDGLDVLLAQEVRP [PRAME]	2.18 ± 0.43	1.98 ± 0.29	–	–
QGGEYLPKPEPPQLVLAYDYSREV [FEM1A]	3.93 ± 0.23	4.12 ± 0.28	–	–
LHRLFREKSLDQLKSISAEEILTL [PHTF1]	2.11 ± 0.45	2.25 ± 0.47	–	–
QCLDKTNESALVKEKELSIELANI [MTUS2]	4.79 ± 0.27	4.77 ± 0.22	–	–
IGSVEEQLAQLRCEMEQQSQEYQI [KRT16]	4.82 ± 0.15	4.85 ± 0.18	–	–
KKPLAGSVDEQNALREVYAHAVLG [WEE1]	3.43 ± 0.18	3.54 ± 0.52	–	–
CADVPLLTPSSKEMMSQALKATFS [ETS1]	2.79 ± 0.2	2.66 ± 0.3	–	–
RSKYDYLMILRRVVNESTVCLMGH [TENT5C]	3.05 ± 0.86	2.52 ± 0.55	–	–
GMQMAEDSKSLKTHQTQPGIRRAR [NET1]	4.78 ± 0.36	4.69 ± 0.46	–	–
ARGEDRAGPQSPSPGAPPAAKPAR [TSPAN10]	5.1 ± 0.56	5.65 ± 0.097	–	–
